Assay results from PMC3749867, “Evolutionarily conserved structural changes in phosphatidylinositol 5-phosphate 4-kinase (PI5P4K) isoforms are responsible for differences in enzyme activity and localization” (Biochemical Journal, 2013).

What was measured:
Settings in all cases: PtdIns5P co-substrate, 10 mM MgCl2, pH 7.4, 30 °C, ATP 0–150 μM
[1] = substrate: Nc1ncnc2c1ncn2[C@@H]1O[C@H](COP(=O)(O)OP(=O)(O)OP(=O)(O)O)[C@@H](O)[C@H]1O; assay: radiometric lipid kinase assay, TLC; assay type: biochemical, Homo sapiens
Text: radiometric lipid kinase assay, TLC on PI5P4Kβ

[2] = substrate: Nc1ncnc2c1ncn2[C@@H]1O[C@H](COP(=O)(O)OP(=O)(O)OP(=O)(O)O)[C@@H](O)[C@H]1O; assay: radiometric lipid kinase assay, TLC; assay type: biochemical, Homo sapiens; remark: listed apart in the source
purified protein = substrate: Nc1ncnc2c1ncn2[C@@H]1O[C@H](COP(=O)(O)OP(=O)(O)OP(=O)(O)O)[C@@H](O)[C@H]1O; assay: purified protein

B1: PI5P4Kβ (Homo sapiens) (protein)
chain: MSSNCTSTTAVAVAPLSASKTKTKKKHFVCQKVKLFRASEPILSVLMWGVNHTINELSNVPVPVMLMPDDFKAYSKIKVDNHLFNKENLPSRFKFKEYCPMVFRNLRERFGIDDQDYQNSVTRSAPINSDSQGRCGTRFLTTYDRRFVIKTVSSEDVAEMHNILKKYHQFIVECHGNTLLPQFLGMYRLTVDGVETYMVVTRNVFSHRLTVHRKYDLKGSTVAREASDKEKAKDLPTFKDNDFLNEGQKLHVGEESKKNFLEKLKRDVEFLAQLKIMDYSLLVGIHDVDRAEQEEMEVEERAEDEECENDGVGGNLLCSYGTPPDSPGNLLSFPRFFGPGEFDPSVDVYAMKSHESSPKKEVYFMAIIDILTPYDTKKKAAHAAKTVKHGAGAEISTVNPEQYSKRFNEFMSNILT
notes: full-length cDNA in pGEX6P, E. coli BL21(DE3), GST fusion or GST cleaved by PreScission; mutant PI5P4Kβ+ His-tagged; homodimer
- Km [1]: 67.05 µM
- kcat [1]: 9.55e-05 s⁻¹

B2: PI5P4Kα (Homo sapiens) (protein)
chain: MATPGNLGSSVLASKTKTKKKHFVAQKVKLFRASDPLLSVLMWGVNHSINELSHVQIPVMLMPDDFKAYSKIKVDNHLFNKENMPSHFKFKEYCPMVFRNLRERFGIDDQDFQNSLTRSAPLPNDSQARSGARFHTSYDKRYIIKTITSEDVAEMHNILKKYHQYIVECHGITLLPQFLGMYRLNVDGVEIYVIVTRNVFSHRLSVYRKYDLKGSTVAREASDKEKAKELPTLKDNDFINEGQKIYIDDNNKKVFLEKLKKDVEFLAQLKLMDYSLLVGIHDVERAEQEEVECEENDGEEEGESDGTHPVGTPPDSPGNTLNSSPPLAPGEFDPNIDVYGIKCHENSPRKEVYFMAIIDILTHYDAKKKAAHAAKTVKHGAGAEISTVNPEQYSKRFLDFIGHILT
notes: full-length cDNA in pGEX6P, E. coli BL21(DE3), GST fusion or GST cleaved by PreScission; His6-tagged version used as standard for kcat conversion; homodimer
- Km [2]: 3.94 µM
- kcat [2]: 0.0105 s⁻¹

B3: PI5P4Kγ (Homo sapiens) (protein)
chain: ASSSVPPATVSAATAGPGPGFGFASKTKKKHFVQQKVKVFRAADPLVGVFLWGVAHSINELSQVPPPVMLLPDDFKASSKIKVNNHLFHRENLPSHFKFKEYCPQVFRNLRDRFGIDDQDYLVSLTRNPPSESEGSDGRFLISYDRTLVIKEVSSEDIADMHSNLSNYHQYIVKCHGNTLLPQFLGMYRVSVDNEDSYMLVMRNMFSHRLPVHRKYDLKGSLVSREASDKEKVKELPTLKDMDFLNKNQKVYIGEEEKKIFLEKLKRDVEFLVQLKIMDYSLLLGIHDIIRGSEPEEEAPVREDESEVDGDCSLTGPPALVGSYGTSPEGIGGYIHSHRPLGPGEFESFIDVYAIRSAEGAPQKEVYFMGLIDILTQYDAKKKAAHAAKTVKHGAGAEISTVHPEQYAKRFLDFITNIFA
- Km (purified protein): 94.18 µM
- kcat (purified protein): 5.72e-06 s⁻¹
